Assay results taken from publication PMC2948571.

Target: 40S-containing ribosomal complexes
Experiment: co-sedimentation

B1: DExH-box protein DHX29 (enzyme)
chain: MGGKNKKHKAPGAAAVRAAVSASRAKSAEAAAAGEAQSKKPVARPPPAAAAGAREPRVKQGPKIYSFNSANDSGGPANVDKSILKVVINNKLEQRIIGVINEHKKQNNDKGMISGRLTAKKLQDLYMALQAFSFKTKDIEDAMTNTLLHGGDLHSALDWLCLNLSDDALPEGFSQEFEEQQAKSRPKFQAPQIQATISPPLQPKIKKQEEDPKIKPKKEDKNMEVNMKEWILQYAERQKEEEKSESSKSLEEEEKFDPNERYLHLAAKFLDAKEQAAAFKLEKNKQGQKEAQEKIRKFQREMETLEDHPVFNPAIKISYQQNERKKPPVATEGESSLNFNLFEKSAAPTEEEKDKKKEPHDVRNFDYTARSWTGKSPKQFLIDWVRKNLPKSPNPSFEKVPVGRYWKCRVRVIKSEDDVLVVCPAILTEDGMQAQHLGATLALYRLVKGQSVHQLLPPTYRDVWLEWSDAEKKKEELNKMETNKPRDLFIAKLLNKLKQQQQLQQQHSENKKENSEDPEESWENLVSEEDFSALSLESAVAEDLEPVRNLFRKLQSSPKYQRLLKERQQLPVFKHRESIVETLKRHRVVVVAGETGSGKSTQVPHFLLEDLLLNEWGTSKCNIICTQPRRISAVSLATRVCDELGCENGPGGRNSLCGYQIRMESRASESTRLLYCTTGVLLRKLQEDGLLSNVSHVIVDEVHERSVQSDFLLVILKEILQKRSDLHLILMSATVDSEKFSTYFTHCPILRISGRSYPVEVFHLEDIIEETGFVLEKDSEYCQKFLEEEEEITINVTSKAGGIKKYQEYIPVQTGTTADLNPLYQKYSNRTQHAILYMNPHKINLDLILELLVYLDKSPQFRNIEGAVLIFLPGLAHIQQLYDLLSNDRRFYSERYKVIALHSILSTQDQAAAFTLPPPGVRKIVLATNIAETGITIPDVVFVIDTGRTKENKYHESSQMSSLVETFVSKASALQRQGRAGRVRDGFCFRMYTRERFEGFMDYSVPEILRVPLEELCLHIMKCNLGSPEDFLSKALDPPQLQVISNAMNLLRKIGACELNEPKLTPLGQHLAALPVNVKIGKMLIFGAIFGCLDPVATLAAVMTEKSPFTTPIGRKEEADLAKSALAIADSDHLTIYNAYLGWKKAQQEGGYRSELAYCRRNFLNRTALLTLEDVKQELMKLVKAAGFSSTTSNNWEGNRASQTLSFQEIALLKAVLAAGLYDNVGKIIYTKSVDVTEKLACIVETAQGKAQVHPSSVNRDLQTYGWLLYQEKIRYARVYLRETTLITPFPVLLFGGDIEVQHRERLLSIDGWIYFQAPVKIAVIFKQLRVLIDSVLRKKLENPKMSLENDKILQIITELIKTENN
  percent of 40S-ribosomal complexes associated with DHX29: 10%
